Results published in patent US20200024362A1 (SHANGHAI BENEMAE PHARMACEUTICAL, published 2020).
Like-named read-outs stand apart in the source and are kept apart here.

Legend:
[1] = biological target: T1, human coagulation factor XI (human, UniProt P03951 19-625); assay: capture ELISA screening of hybridomas from animals immunized with human FXI
T1 construct: Bought from Enzyme Research Laboratory (HFXI 1111); also called FXI; human FXI

[2] = biological target: T2, human factor XIa (human, UniProt P03951 19-387; P03951 388-625); assay: apparent Ki, inhibition of FXIa (5 nM) cleavage of chromogenic substrate S-2366
T2 construct: also called FXIa

[3] = biological target: T1, human coagulation factor XI; assay: SPR (Biacore T200), antibody captured on anti-human IgG CM5 chip, FXI 0.063 to 6.25 nM flowed
Experimental: (§1) The interaction of the antibodies with FXI was determined by the SPR assay on a Biacore T200 system (Biacore, GE Healthcare). Briefly, human IgG capture antibody (Biacore, GE Healthcare) was pre-immobilized on a CM5 sensor chip (GE Healthcare), and test antibodies were captured by flowing through the chip. The final amount of the test antibodies captured was adjusted to an equal amount of 15 response units (RU) by adjusting the capture time. Then, antigen FXI was allowed to flow through the chip for 180 s for association and then for 1200 s for dissociation. […] The data were collected and the affinities between the test antibodies and FXI were analyzed using the Biacore Evaluation Software.
(§2) The test antibodies were captured on a sensor chip, and then indicated concentrations of FXI were allowed to flow through the chip.

[4] = biological target: T1, human coagulation factor XI; assay: SPR, antibody captured on sensor chip, FXI flowed
Experimental: as §1, §2

[5] = biological target: T2, human factor XIa; assay: SPR (Biacore T200), antibody captured on sensor chip, FXIa 0.063 to 6.25 nM flowed
[6] = biological target: T2, human factor XIa; assay: SPR (Biacore T200), antibody captured on anti-human IgG CM5 chip, FXIa flowed
Experimental: (§3) The affinity of anti-FXI/FXIa antibodies to FXI/FXIa were determined using surface plasmon resonance (SPR) technology performed on the BIAcore T200 instrument. […] These antibodies were captured onto a Biacore CM5 sensor chip that was pre-immobilized with an anti-human IgG antibody.
(§4) Then different concentrations of the purified antigen FXI or FXIa (0.005-1 μg/mL) were allowed to flow through the CM5 chip for 180 s for association with the anti-FXI/FXIa antibody, followed by a time of 1800 s for dissociation. The binding data was collected and the affinity between FXI/FXIa and the test antibodies was analyzed using the Biacore Evaluation Software provided by GE Healthcare.

[7] = biological target: T2, human factor XIa; assay: SPR, antibody captured on sensor chip, FXIa flowed
[8] = biological target: T1, human coagulation factor XI; assay: SPR (Biacore T200), antibody captured on anti-human IgG CM5 chip, FXI flowed
Experimental: as §3, §4

[9] = biological target: T2, human factor XIa; assay: cell-based or functional assay
[10] = biological target: T1, human coagulation factor XI; assay: SPR (Biacore T200), antibody captured on anti-human IgG CM5 chip, FXI 0.063 to 6.25 nM flowed; remark: listed apart in the source
Experimental: as §1, §2

[11] = biological target: T2, human factor XIa; assay: cell-based or functional assay; remark: listed apart in the source
[12] = biological target: T2, human factor XIa; assay: SPR (Biacore T200), antibody captured on sensor chip, FXIa 0.063 to 6.25 nM flowed; remark: listed apart in the source

B1: 38E4 (antibody, V domains shown)
VH: EVQLQESGPGLVKPSQSLSLTCSVSGFSITNNYWGWIRKFPRNKMEWIGHISYSGSTNYNPSLKSRISITRDSSKSQFFLQLNSLTTEDTATYYCARGSYYYSASGYFDYWGQGITVTVSS
VL: DIRMTQSPASLSASLGETVNIECLASEDIYSDLAWYQQKPGKSPQLLIYNANSVQNGVPSRFSGSGSGTQYSLKINSLQSEDVATYFCQQFNSYPNTFGAGTKLEIK
notes: Hybridoma monoclonal antibody
[1]
  binding result: binds

B2: 45H1 (antibody, V domains shown)
VH: EVQLQESGPGLVKPSQSLSLICSVTGYSITTTYWGWIRKFPGNKMEWIGHISNSGSTNYNPSLKSRISVTRDTSTNQFFLQLNSVTTEDTATYYCARGSYYYSASGYFDYWGHGVMVTVSS
VL: DIRMTQSPASLSASLGETVNIGCLASEDIYSDLAWYQQKPGKSPQLLIYNANNLQNGVPSRFSGSGSGTQYSLKINSLQSEDVATYFCQQYNSYPNTFGAGTKLEIK
notes: Hybridoma monoclonal antibody
[1]
  binding result: binds

B3: h-19F6 (antibody, V domains shown)
VH: EVQLVESGGGLVQPGRSLRLSCTASGFTFSKYAMSWVRQAPGKGLEWVSAINYDGSTTYYADSVKGRFTLSRDNSKNTLYLQMNSLRAEDTAVYYCARHPFNNFGIWFAYWGQGTLVTVS
VL: QFQLTQPSSVSASVGDRVTITCERSSGDIGDSYVSWYQQKPGQPPKNVIYADDQRPSGVPDRFSGSIDGSGNSASLTISSLQAEDAADYFCQSYDSNIDFNPVFGGGTKLEVK
notes: Humanized rat antibody in human IgG4 form (variable regions linked to human IgG4 Fc domain, expressed in CHO cells); also called humanized 19F6
[2]
  Ki: 0.67 nM
[3]
  koff: 5.88e-05 s⁻¹
  kon: 2.65e+06 M⁻¹ s⁻¹
[4]
  Kd: 0.022 nM
[5]
  koff: 8.36e-05 s⁻¹
  kon: 3.24e+06 M⁻¹ s⁻¹
[6]
  Kd: 0.0258 nM
[7]
  Kd: 0.026 nM
[8]
  Kd: 0.0222 nM
[9]
  IC50 (read off the curve): ~3 nM

B4: 7C9 (antibody, V domains shown)
VH: QIQLVQSGPELKKPGETVKISCKASGYIFTDYGMNWVKQAPGKGLKWMGWINTYTGEPTYADDFKGRFVFSLETSASTAYLQINNLKNEDTATFFCARRRMGYAVDYWGQGTSVTVSS
VL: DIQMTQSPSSLSASLGERVSLTCRASQDIDIRLNWLRQEPDGTIKRLIYATSSLDSGVPKRFSGSRSGSDYSLTISSLESEDFVDYYCLQYASSPFTFGSGTKLEIK
notes: Hybridoma monoclonal antibody
[1]
  binding result: binds

B5: 42A5 (antibody, V domains shown)
VH: QVQLKESGPGLVQPSQTLSLTCTVSGFSLTSYHLHWIRQPPGKGLEWMGLMWRDGDTSYNSRLKSRLSITRDTSKSQVFLKMSGLQTEDTATYYCARGMTLATPFLYWGQGTLVTVSS
VL: DVVLTQTPGSLSVTLGDPASMSCRSSQSLESSDGNTYLEWYLQKSGQSPQLLIYGVSNRFSGVPDRFAGSGSGTDFTLKISRVEPEDLGVYYCFQATRDPFTFGSGTKLEIN
notes: Hybridoma monoclonal antibody
[1]
  binding result: binds

B6: 13F4 (antibody, V domains shown)
VH: EVQLKESGPGLVQPSQTLSLTCTVSGFSLTDYSVHWVRQPPGKGLEWMGVMWSGGSTAYNPALTSRLTISRDTSKSQVFLKMNSLQTEDTAIYYCTRAPFNNWGNWLPYWGQGTLVTVSS
VL: QFTLTQPKSVSGSLRSTITIPCERSSGDIGDSYVSWYQQHLGRPPINVIYADDQRPSEVSARFSGSIDSSSNSASLTITNLQMDDEADYFCQSYDTYMDVVFGGGTKLNVL
notes: Hybridoma monoclonal antibody
[1]
  binding result: binds

B7: 34F8 (antibody, V domains shown)
VH: QVQLKESGPGLVQPSQTLSLTCTVSGFSLTTYHVHWVRQPPGKGLEWMGIMWRDGDTSYNSVLKSRLSISRDISKSQVFLKMSSLQTEDTATYFCARGGTLTTPFTYWGQGTLVTVSS
VL: DVVLTQTPGSLSVTLGQQVSISCRSSQSLESRDGNTYLEWYLQKPGQSPQVLLYGVSNRLSGVPDRFLGRGSGADFTLKISRVEPEDLGVYYCFQATHGPFTFGSGTKLEMK
notes: Hybridoma monoclonal antibody
[1]
  binding result: binds

B8: 19F6 (antibody, V domains shown)
VH: EVQLVESGGGLVQPGRSLRLSCTASGFTFSKYVMAWVRQAPTKGLEWVASINYDGSTTYYRDSVQGRFTLSRDNAKTTLYLQMDSLRSEDTATYYCARHPFNNFGIWFAYWGQGTLVTVSS
VL: QFTLTQPKSVSGSLRSTITIPCERSSGDIGDSYVSWYQQHLGRPPINVIYADDQRPSEVSDRFSGSIDTSSNSASLTITNLQMDDAADYFCQSYDSNIDFNPVFGGGTKLTVL
notes: Hybridoma monoclonal antibody (rat, immunized with human FXI)
[1]
  binding result: binds

B9: h-42A5 (antibody, V domains shown)
VH: QVTLKESGPVLVKPTETLTLTCTVSGFSLTSYHLHWIRQPPGKALEWMGLMWRDGDTSYNSRLKSRLTISRDTSKSQVVLTMTNMDPVDTATYYCARGMTLATPFLYWGQGTLVTVSS
VL: DVVLTQTPLSLSVTPGQPASISCRSSQSLESSDGNTYLEWYLQKPGQSPQLLIYGVSNRFSGVPDRFSGSGSGTDFTLKISRVEAEDLGVYYCFQATRDPFTFGQGTKLEIKR
notes: Humanized antibody in human IgG4 form; also called humanized 42A5
[2]
  Ki: 1.43 nM
[4]
  Kd: 0.036 nM
[10]
  koff: 4.07e-05 s⁻¹
  kon: 1.14e+06 M⁻¹ s⁻¹
[11]
  IC50 (read off the curve): ~5 nM
[6]
  Kd: 0.00814 nM
[7]
  Kd: 0.0081 nM
[8]
  Kd: 0.0357 nM
[12]
  koff: 1.38e-05 s⁻¹
  kon: 1.69e+06 M⁻¹ s⁻¹

B10: h-34F8 (antibody, V domains shown)
VH: QVQLQESGPGLVKPSETLSLTCTVSGFSLTTYHVHWVRQPPGKGLEWIGIMWRDGDTYYNSSLKSRVTISRDTSKNQVSLKLSSVTAADTAVYFCARGGTLTTPFTYWGQGTLVTVSS
VL: DVVLTQTPLSLPVTPGEPASISCRSSQSLESRDGNTYLEWYLQKPGQSPQVLLYGVSNRLSGVPDRFSGSGSGTDFTLKISRVEAEDVGVYYCFQATHGPFTFGQGTKLEIKR
notes: Humanized antibody in human IgG4 form; also called humanized 34F8
[2]
  Ki: 2.08 nM
[6]
  Kd: 0.00385 nM
[8]
  Kd: 0.0195 nM

B11: 3G12 (antibody, V domains shown)
VH: QVTLKESGPGILQPSQTLSLTCSFSGFSLNTPGMGVSWIRQPSGKGLEWLAHIYWDDDKRFNPSLKSRLTISKDTSRDQVFLMITSVDTADSATYFCARKGRGPFTYWGQGTLVTVSS
VL: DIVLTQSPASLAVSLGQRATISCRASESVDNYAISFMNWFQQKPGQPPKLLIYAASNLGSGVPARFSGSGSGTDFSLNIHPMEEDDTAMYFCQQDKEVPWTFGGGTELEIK
notes: Hybridoma monoclonal antibody
[1]
  binding result: binds

B12: 5B2 (antibody, V domains shown)
VH: QVTLKESGPGILQPSQTLSLTCSFSGFSLNTSGMGVSWIRQPSGKGLEWLAHIYWDDDKRYKPSLKSRLTISKDTSRNQVFLMITSVDTADTATYYCVRKGRGPFANWGQGTLVTVSA
VL: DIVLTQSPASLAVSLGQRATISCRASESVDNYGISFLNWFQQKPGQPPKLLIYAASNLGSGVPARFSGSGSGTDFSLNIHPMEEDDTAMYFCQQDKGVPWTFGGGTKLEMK
notes: Hybridoma monoclonal antibody
[1]
  binding result: binds

B13: 21F12 (antibody, V domains shown)
VH: EVQLVESGGGLVQPGRSLKLSCVASGFTFNNHWMTWIRQAPGKGLEWVASITDNGGSTYYPDSVKGRFTISRDNAKSTLYLHMNSLRSEDTATYYCTRDRYDSDGYYYVRYYVVDAWGQGASVTVSS
VL: DVRMTQSPASLSASLGETVNIECLASEDIYSDLAWYQQKPGKSPQLLIYNANSLQNGVPSRFSGSGSGTQYSLKISTLQSEDVATYFCQQYSNYRRTFGGGTKLEIN
notes: Hybridoma monoclonal antibody
[1]
  binding result: binds

B14: 42F4 (antibody, V domains shown)
VH: EVQLQESGPGLVKPSQSLSLTCSVTGYSITNHYWGWIRKFPGNKMEWIGHISNSGGTNYNPSLKSRISITRDTSKNQFFLQLKSVTTEDTATYYCTRGSYYYSASGYFDYWGQGVLVTVSS
VL: DIRMTQSPASLSASLGETVNIECLASEDIHSDLAWYQQKPGKSPQLLIYNANSLQNGVPSRFSGSGSGTQYSLKITSLQSEDVATYFCQQYTNYPNTFGAGTKLEIN
notes: Hybridoma monoclonal antibody
[1]
  binding result: binds
